Columns and labels:
[1] = target: (His)Rpo3ΔFeS1 (Methanosarcina acetivorans) (UniProt P0CG28)
[2] = target: (His)Rpo3, N-terminally histidine-tagged wild-type Rpo3 expressed in Methanosarcina acetivorans (Methanosarcina acetivorans) (UniProt P0CG28)
[3] = target: (His)Rpo3mFeS2 (Methanosarcina acetivorans) (UniProt P0CG28)
[4] = target: (His)Rpo3ΔD3 (Methanosarcina acetivorans) (UniProt P0CG28)
[5] = target: (His)Rpo3ΔFeS2 (Methanosarcina acetivorans) (UniProt P0CG28); experiment: pull-down; merodiploid M. acetivorans strains (native Rpo3 also present), tetracycline-induced; (His)Rpo3 variant held on Ni2+-agarose from lysate, anaerobic; eluates normalised to 15 ng (His)Rpo3; western blot for Rpo11, Rpo2′, Rpo1″

Substance | nonspecific transcription (RNAP) activity of the imidazole eluate, gene replacement strain DJL52 (counts per min ng^-1 Rpo3) [1] | nonspecific transcription (RNAP) activity of the imidazole eluate, gene replacement strain DJL51 (counts per min ng^-1 Rpo3) [2] | nonspecific transcription (RNAP) activity of the imidazole eluate, gene replacement strain DJL55 (counts per min ng^-1 Rpo3) [3] | nonspecific transcription (RNAP) activity of the imidazole eluate, gene replacement strain DJL54 (counts per min ng^-1 Rpo3) [4] | percent less in the eluate than with (His)Rpo3 (band intensity) [5] [% less]
Rpo1″ (RpoA″), catalytic subunit of Methanosarcina acetivorans RNA polymerase (natural protein) | 33 | 210 | 94 | 90 | –
Rpo2′ (RpoB′), catalytic subunit of Methanosarcina acetivorans RNA polymerase (from UniProt Q8TRB6 1-604) (natural protein) | – | – | – | – | 50

— paper PMC5300874
